# Test results: patent publication US20240034796A1 (GENUV, published 2024)
# T1: extracellular domain (ECD) PD-1 protein from mouse (mouse, UniProt Q02242 25-169)
# T1 construct: extracellular domain; also called mouse PD-1 antigen
# T1 sequence (looked up): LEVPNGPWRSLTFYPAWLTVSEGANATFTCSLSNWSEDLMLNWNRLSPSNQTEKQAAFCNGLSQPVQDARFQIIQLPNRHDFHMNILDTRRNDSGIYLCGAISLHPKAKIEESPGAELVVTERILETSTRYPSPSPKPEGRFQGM
# Assays:
# [1] = target: T1, extracellular domain (ECD) PD-1 protein …; experiment: protein-based ELISA, coated PD-1 ECD, antibody at 1 ug/ml
# Method: (§1) To determine the cross-reactivity of the antibody to PD-1 antigens, protein-based ELISA was performed. To summarize the ELISA analysis, a 96-well plate (Thermo scientific) was coated with 10 ng of the extracellular domain (ECD) PD-1 proteins from human, mouse, rabbit, cynomolgus, and rat overnight at 4° C. […] After washing, a secondary antibody (anti-human IgG antibody) was added and incubated at 37° C. for 2 hours. After washing, TMB substrate (abcam) was added, and the color reaction was stopped with STOP solution (abcam). Absorbance at 450/650 nm was measured using a microplate reader (ThermoFisher).
# [2] = target: T2, extracellular domain (ECD) PD-1 protein from human (human, UniProt Q15116 25-170); experiment: as above
# T2 construct: the whole entry is named; also called human PD-1 antigen
# T2 sequence (Q15116 25-170 limits assumed): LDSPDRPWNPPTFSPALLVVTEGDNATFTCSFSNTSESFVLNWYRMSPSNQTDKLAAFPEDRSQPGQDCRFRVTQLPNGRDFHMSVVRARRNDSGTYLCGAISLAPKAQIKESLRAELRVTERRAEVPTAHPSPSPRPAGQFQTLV
# Method: as §1
# human PD-1 protein [3] = target: T3, human PD-1 protein (human, UniProt Q15116 25-167, limits assumed); experiment: SPR, binding kinetics to human PD-1
# T3 construct: also called human PD-1 antigen
# T3 sequence (Q15116 25-167 limits assumed): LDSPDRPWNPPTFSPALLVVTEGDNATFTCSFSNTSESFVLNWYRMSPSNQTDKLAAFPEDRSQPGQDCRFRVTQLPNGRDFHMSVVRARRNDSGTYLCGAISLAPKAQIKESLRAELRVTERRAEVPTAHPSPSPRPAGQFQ
# human PD-1 protein [4] = target: T3, human PD-1 protein; experiment: SPR; ratio against the U299-WT parent
Binder,binding result [1],binding result [2],Kd (human PD-1 protein [3]) [nM],koff (human PD-1 protein [3]) [s⁻¹],kon (human PD-1 protein [3]) [M⁻¹ s⁻¹],Ratio (kD) (human PD-1 protein [4]),Ratio (kd) (human PD-1 protein [4])
"humanized antibody 1G1-h68 (antibody, human IgG4, kappa, V domains shown, hIgG4 heavy chain, human kappa light chain) VH: QVQLVQSGAEVKKPGASVKVSCKASGYTFTGYWMHWVRQAPGQGLEWIGMIHPNSDTTTYNEKFKNRVTMTRDTSISTAYMELSRLRSDDTAVYYCTGTDQAAWFAFWGQGTTVTVSS VL: DIVMTQTPLSLSVTPGQPASISCRSSQNIVHSNGDTYLEWYLQKPGQSPQLLIYKVSKRFSGVPDRFSGSGSGTDFTLKISRVEAEDVGVYYCFQGSHVPWTFGGGTKVEIKR",binds,binds,,,,,
"AHF16556 (antibody, V domains shown) VH: QVQLVQSGAEVKKPGASVKVSCKASGYTFTGYWMHWVRQAPGQGLEWIGMIHPNSDTTVYNWKFKNRVTMTRDTSISTAYMELSRLRSDDTAVYYCAGTDQEAWAAFWGQGTTVTVSS VL: DIVMTQTPLSLSVTPGQPASISCRSSQNIVRSQGDTYLEWYLQKPGQSPQLLIYKVSKRFSGVPDRFSGSGSGTDFTLKISRVEAEDVGVYYCFQGSHVPWTFGGGTKVEIK",,,0.427,6.31e-05,148000,5.27,6.45
"AHF16564 (antibody, V domains shown) VH: QVQLVQSGAEVKKPGASVKVSCKASGYTFTGYWMHWVRQAPGQGLEWIGMIHPNSDTTTYNEKFKNRVTMTRDTSISTAYMELSRLRSDDTAVYYCAGTDQEAWAGFWGQGTTVTVSS VL: DIVMTQTPLSLSVTPGQPASISCRSSQNIVRSQGDTYLEWYLQKPGQSPQLLIYKVSKRFSGVPDRFSGSGSGTDFTLKISRVEAEDVGVYYCFQGSHVPWTFGGGTKVEIK",,,0.16,3.68e-05,230000,14.1,11.1
"AHF16559 (antibody, V domains shown) VH: QVQLVQSGAEVKKPGASVKVSCKASGYTFTGYWMHWVRQAPGQGLEWIGMIHPNSDTTVYNEKFKNRVTMTRDTSISTAYMELSRLRSDDTAVYYCAGTDQAAWHAFWGQGTTVTVSS VL: DIVMTQTPLSLSVTPGQPASISCRSSQNIVHSQGDTYLEWYLQKPGQSPQLLIYKVSKRFSGVPDRFSGSGSGTDFTLKISRVEAEDVGVYYCFQGSHVPWTFGGGTKVEIK",,,0.371,7.62e-05,206000,6.06,5.34
"AHF16565 (antibody, V domains shown) VH: QVQLVQSGAEVKKPGASVKVSCKASGYTFTGYWMHWVRQAPGQGLEWIGMIHPNSDTTVYNWKFKNRVTMTRDTSISTAYMELSRLRSDDTAVYYCAGTDQEAWHGFWGQGTTVTVSS VL: DIVMTQTPLSLSVTPGQPASISCRSSQNIVRSQGDTYLEWYLQKPGQSPQLLIYKVSKRFSGVPDRFSGSGSGTDFTLKISRVEAEDVGVYYCFQGSHVPWTFGGGTKVEIK",,,0.913,0.000118,130000,2.46,3.45
"AHF16568 (antibody, V domains shown) VH: QVQLVQSGAEVKKPGASVKVSCKASGYTFTGYWMHWVRQAPGQGLEWIGMIHPNSDTTIYNWKFKNRVTMTRDTSISTAYMELSRLRSDDTAVYYCAGTDQEAWMGFWGQGTTVTVSS VL: DIVMTQTPLSLSVTPGQPASISCRSSQNIVRSQGDTYLEWYLQKPGQSPQLLIYKVSKRFSGVPDRFSGSGSGTDFTLKISRVEAEDVGVYYCFQGSHVPWTFGGGTKVEIK",,,0.241,3.52e-05,146000,9.34,11.6
"AHF16557 (antibody, V domains shown) VH: QVQLVQSGAEVKKPGASVKVSCKASGYTFTGYWMHWVRQAPGQGLEWIGMIHPNSDTTVYNWKFKNRVTMTRDTSISTAYMELSRLRSDDTAVYYCAGTDQAAWAGFWGQGTTVTVSS VL: DIVMTQTPLSLSVTPGQPASISCRSSQNIVHSQGDTYLEWYLQKPGQSPQLLIYKVSKRFSGVPDRFSGSGSGTDFTLKISRVEAEDVGVYYCFQGSHVPWTFGGGTKVEIK",,,0.425,8.68e-05,204000,5.29,4.69
"AHF16561 (antibody, V domains shown) VH: QVQLVQSGAEVKKPGASVKVSCKASGYTFTGYWMHWVRQAPGQGLEWIGMIHPNSDTTIYNEKFKNRVTMTRDTSISTAYMELSRLRSDDTAVYYCAGTDQAAWAGFWGQGTTVTVSS VL: DIVMTQTPLSLSVTPGQPASISCRSSQNIVRSQGDTYLEWYLQKPGQSPQLLIYKVSKRFSGVPDRFSGSGSGTDFTLKISRVEAEDVGVYYCFQGSHVPWTFGGGTKVEIK",,,0.302,5.53e-05,183000,7.45,7.36
"humanized antibody 1G1-h61 (antibody, human IgG4, kappa, V domains shown, hIgG4 heavy chain, human kappa light chain) VH: QVQLVQSGAEVKKPGASVKVSCKASGYTFTGYWMHWVRQAPGQGLEWMGMIHPNSDTTTYNEKFKNRVTMTRDTSISTAYMELSRLRSDDTAVYYCAGTDQAAWFAFWGQGTTVTVSS VL: DIVMTQTPLSLSVTPGQPASISCRSSQNIVHSNGDTYLEWYLQKPGQSPKLLIYKVSKRFSGVPDRFSGSGSGTDFTLKISRVEAEDVGVYYCFQGSHVPWTFGGGTKVEIKR",binds,binds,,,,,
"AHF16569 (antibody, V domains shown) VH: QVQLVQSGAEVKKPGASVKVSCKASGYTFTGYWMHWVRQAPGQGLEWIGMIHPNSDTTIYNWKFKNRVTMTRDTSISTAYMELSRLRSDDTAVYYCAGTDQEAWAAFWGQGTTVTVSS VL: DIVMTQTPLSLSVTPGQPASISCRSSQNIVRSQGDTYLEWYLQKPGQSPQLLIYKVSKRFSGVPDRFSGSGSGTDFTLKISRVEAEDVGVYYCFQGSHVPWTFGGGTKVEIK",,,0.339,6.74e-05,199000,6.64,6.04

# The remaining lines, values ahead:
binding result [1],binding result [2],Kd (human PD-1 protein [3]) [nM],koff (human PD-1 protein [3]) [s⁻¹],kon (human PD-1 protein [3]) [M⁻¹ s⁻¹],Ratio (kD) (human PD-1 protein [4]),Ratio (kd) (human PD-1 protein [4]),Binder
,,0.349,7.53e-05,215000,6.45,5.41,"AHF16566 (antibody, V domains shown) VH: QVQLVQSGAEVKKPGASVKVSCKASGYTFTGYWMHWVRQAPGQGLEWIGMIHPNSDTTVYNWKFKNRVTMTRDTSISTAYMELSRLRSDDTAVYYCAGTDQAAWAAFWGQGTTVTVSS VL: DIVMTQTPLSLSVTPGQPASISCRSSQNIVHSQGDTYLEWYLQKPGQSPQLLIYKVSKRFSGVPDRFSGSGSGTDFTLKISRVEAEDVGVYYCFQGSHVPWTFGGGTKVEIK"
,,0.331,6.74e-05,204000,6.8,6.04,"AHF16560 (antibody, V domains shown) VH: QVQLVQSGAEVKKPGASVKVSCKASGYTFTGYWMHWVRQAPGQGLEWIGMIHPNSDTTIYNEKFKNRVTMTRDTSISTAYMELSRLRSDDTAVYYCAGTDQEAWHGFWGQGTTVTVSS VL: DIVMTQTPLSLSVTPGQPASISCRSSQNIVRSQGDTYLEWYLQKPGQSPQLLIYKVSKRFSGVPDRFSGSGSGTDFTLKISRVEAEDVGVYYCFQGSHVPWTFGGGTKVEIK"
,,0.2,3.29e-05,164000,11.2,12.4,"AHF16570 (antibody, V domains shown) VH: QVQLVQSGAEVKKPGASVKVSCKASGYTFTGYWMHWVRQAPGQGLEWIGMIHPNSDTTIYNWKFKNRVTMTRDTSISTAYMELSRLRSDDTAVYYCAGTDQAAWAGFWGQGTTVTVSS VL: DIVMTQTPLSLSVTPGQPASISCRSSQNIVRSQGDTYLEWYLQKPGQSPQLLIYKVSKRFSGVPDRFSGSGSGTDFTLKISRVEAEDVGVYYCFQGSHVPWTFGGGTKVEIK"
,,0.31,7.69e-05,248000,7.26,5.29,"AHF16558 (antibody, V domains shown) VH: QVQLVQSGAEVKKPGASVKVSCKASGYTFTGYWMHWVRQAPGQGLEWIGMIHPNSDTTTYNEKFKNRVTMTRDTSISTAYMELSRLRSDDTAVYYCAGTDQEAWHAFWGQGTTVTVSS VL: DIVMTQTPLSLSVTPGQPASISCRSSQNIVRSQGDTYLEWYLQKPGQSPQLLIYKVSKRFSGVPDRFSGSGSGTDFTLKISRVEAEDVGVYYCFQGSHVPWTFGGGTKVEIK"
,,0.165,3.6e-05,218000,13.6,11.3,"AHF16563 (antibody, V domains shown) VH: QVQLVQSGAEVKKPGASVKVSCKASGYTFTGYWMHWVRQAPGQGLEWIGMIHPNSDTTVYNWKFKNRVTMTRDTSISTAYMELSRLRSDDTAVYYCAGTDQEAWMGFWGQGTTVTVSS VL: DIVMTQTPLSLSVTPGQPASISCRSSQNIVHSQGDTYLEWYLQKPGQSPQLLIYKVSKRFSGVPDRFSGSGSGTDFTLKISRVEAEDVGVYYCFQGSHVPWTFGGGTKVEIK"
